Key:
Assay in all cases: holdup assay
Set-up in all cases: key: below the threshold = too weak to quantify, mostly under pKd 3.1 to 4
SNTB1, Q13884 = molecular target: T1, SNTB1, Q13884
T1 sequence (Q13884 107-205, limits assumed, looked up): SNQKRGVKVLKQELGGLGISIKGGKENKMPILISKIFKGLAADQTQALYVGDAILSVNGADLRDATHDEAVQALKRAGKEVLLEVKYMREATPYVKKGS

LIN7A, O14910 = molecular target: T2, LIN7A, O14910
T2 sequence (O14910 103-200, limits assumed, looked up): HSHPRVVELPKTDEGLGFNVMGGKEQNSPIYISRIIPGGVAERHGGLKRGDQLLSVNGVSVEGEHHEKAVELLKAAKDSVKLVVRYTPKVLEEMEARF

Inadl_9, Q8NI35 = molecular target: Inadl_9, Q8NI35
Chain of Inadl_9, Q8NI35 (Q8NI35 1530-1615): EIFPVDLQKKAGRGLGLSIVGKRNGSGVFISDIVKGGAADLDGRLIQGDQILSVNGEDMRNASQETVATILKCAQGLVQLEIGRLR

CARD11, Q9BXL7 = molecular target: T3, CARD11, Q9BXL7
T3 sequence (Q9BXL7 662-765, limits assumed, looked up): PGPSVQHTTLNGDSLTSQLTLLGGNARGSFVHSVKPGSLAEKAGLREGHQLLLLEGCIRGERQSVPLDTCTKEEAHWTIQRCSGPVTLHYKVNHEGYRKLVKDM

SNTG1, Q9NSN8 = molecular target: T4, SNTG1, Q9NSN8
T4 sequence (Q9NSN8 52-150, limits assumed, looked up): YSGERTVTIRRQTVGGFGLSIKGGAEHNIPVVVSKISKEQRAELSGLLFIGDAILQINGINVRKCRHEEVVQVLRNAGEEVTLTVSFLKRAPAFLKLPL

GRIP1_5, Q9Y3R0 = molecular target: T5, GRIP1_5, Q9Y3R0
T5 sequence (Q9Y3R0 568-668, limits assumed, looked up): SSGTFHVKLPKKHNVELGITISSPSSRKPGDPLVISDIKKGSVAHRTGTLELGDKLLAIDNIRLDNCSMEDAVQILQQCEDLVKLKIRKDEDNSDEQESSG

PDZRN4_1, Q6ZMN7 = molecular target: PDZRN4_1, Q6ZMN7
Chain of PDZRN4_1, Q6ZMN7 (Q6ZMN7 213-318): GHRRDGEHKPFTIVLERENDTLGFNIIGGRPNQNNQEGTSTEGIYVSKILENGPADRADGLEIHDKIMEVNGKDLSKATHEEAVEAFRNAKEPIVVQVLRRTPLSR

GRASP, Q7Z6J2 = molecular target: GRASP, Q7Z6J2
Chain of GRASP, Q7Z6J2 (Q7Z6J2 96-193): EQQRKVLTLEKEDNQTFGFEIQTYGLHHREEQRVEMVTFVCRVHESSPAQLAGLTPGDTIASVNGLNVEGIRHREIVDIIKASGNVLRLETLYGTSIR

IL16_4, Q14005 = molecular target: IL16_4, Q14005
Chain of IL16_4, Q14005 (Q14005 1229-1329): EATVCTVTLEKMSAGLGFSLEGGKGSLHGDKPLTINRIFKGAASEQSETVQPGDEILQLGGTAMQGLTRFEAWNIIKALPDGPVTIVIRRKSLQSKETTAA

Inadl_1, Q8NI35 = molecular target: Inadl_1, Q8NI35
Chain of Inadl_1, Q8NI35 (Q8NI35 113-229): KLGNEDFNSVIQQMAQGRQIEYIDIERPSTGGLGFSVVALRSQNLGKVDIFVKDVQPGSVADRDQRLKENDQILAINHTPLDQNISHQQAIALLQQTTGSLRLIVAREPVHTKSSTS

HTRA3, P83110 = molecular target: T6, HTRA3, P83110
T6 sequence (P83110 354-453, limits assumed, looked up): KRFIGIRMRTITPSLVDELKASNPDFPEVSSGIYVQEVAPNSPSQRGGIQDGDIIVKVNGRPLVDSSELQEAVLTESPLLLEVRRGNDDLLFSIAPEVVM

PICK1, Q9NRD5 = molecular target: PICK1, Q9NRD5
Chain of PICK1, Q9NRD5 (Q9NRD5 17-115): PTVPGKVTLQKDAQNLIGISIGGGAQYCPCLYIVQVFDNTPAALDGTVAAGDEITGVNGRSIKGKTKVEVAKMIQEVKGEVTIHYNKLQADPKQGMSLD

LRRC7, Q96NW7 = molecular target: T7, LRRC7, Q96NW7
T7 sequence (Q96NW7 1440-1537, limits assumed, looked up): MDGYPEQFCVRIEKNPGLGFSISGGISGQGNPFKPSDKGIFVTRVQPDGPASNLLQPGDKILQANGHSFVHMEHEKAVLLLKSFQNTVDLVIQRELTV

LIN7B, Q9HAP6 = molecular target: T8, LIN7B, Q9HAP6
T8 sequence (Q9HAP6 88-185, limits assumed, looked up): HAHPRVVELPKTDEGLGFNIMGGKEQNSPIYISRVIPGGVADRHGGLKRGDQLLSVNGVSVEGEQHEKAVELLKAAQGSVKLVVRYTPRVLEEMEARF

AHNAK1, Q09666 = molecular target: AHNAK1, Q09666
Chain of AHNAK1, Q09666 (Q09666 4-100): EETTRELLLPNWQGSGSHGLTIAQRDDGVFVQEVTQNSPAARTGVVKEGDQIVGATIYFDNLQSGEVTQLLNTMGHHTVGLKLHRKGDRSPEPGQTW

ARHGAP21, Q5T5U3 = molecular target: T9, ARHGAP21, Q5T5U3
T9 sequence (Q5T5U3 45-169, limits assumed, looked up): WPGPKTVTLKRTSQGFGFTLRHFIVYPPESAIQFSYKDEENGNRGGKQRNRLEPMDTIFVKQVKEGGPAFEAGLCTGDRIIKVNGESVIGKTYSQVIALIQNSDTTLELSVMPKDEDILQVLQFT

TIAM2, Q8IVF5 = molecular target: T10, TIAM2, Q8IVF5
T10 sequence (Q8IVF5 885-986, limits assumed, looked up): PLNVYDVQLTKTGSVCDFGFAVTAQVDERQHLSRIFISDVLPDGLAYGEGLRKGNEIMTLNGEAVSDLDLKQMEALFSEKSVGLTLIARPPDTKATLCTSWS

GRID2IP_1, A4D2P6 = molecular target: GRID2IP_1, A4D2P6
Chain of GRID2IP_1, A4D2P6 (A4D2P6 1-87): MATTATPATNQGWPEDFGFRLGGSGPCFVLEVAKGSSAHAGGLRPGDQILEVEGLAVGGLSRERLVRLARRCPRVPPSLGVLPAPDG

MAGI2_6, Q86UL8 = molecular target: MAGI2_6, Q86UL8
Chain of MAGI2_6, Q86UL8 (Q86UL8 1141-1229): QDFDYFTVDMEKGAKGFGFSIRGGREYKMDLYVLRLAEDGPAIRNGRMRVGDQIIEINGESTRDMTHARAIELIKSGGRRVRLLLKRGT

TJP2_1, Q9UDY2 = molecular target: TJP2_1, Q9UDY2
Chain of TJP2_1, Q9UDY2 (Q9UDY2 24-128): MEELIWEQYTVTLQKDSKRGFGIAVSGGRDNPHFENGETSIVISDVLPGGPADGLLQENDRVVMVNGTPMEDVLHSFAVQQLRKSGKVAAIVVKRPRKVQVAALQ

LNX2_3, Q8N448 = molecular target: T11, LNX2_3, Q8N448
T11 sequence (Q8N448 463-564, limits assumed, looked up): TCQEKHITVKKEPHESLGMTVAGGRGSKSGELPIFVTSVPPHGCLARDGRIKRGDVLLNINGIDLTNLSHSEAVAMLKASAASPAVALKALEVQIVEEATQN

MAGI1_1, Q96QZ7 = molecular target: MAGI1_1, Q96QZ7
Chain of MAGI1_1, Q96QZ7 (Q96QZ7 1-106): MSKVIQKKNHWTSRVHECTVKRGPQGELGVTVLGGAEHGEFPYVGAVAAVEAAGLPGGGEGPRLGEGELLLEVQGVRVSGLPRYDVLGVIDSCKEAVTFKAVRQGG

MPDZ_5, O75970 = molecular target: T12, MPDZ_5, O75970
T12 sequence (O75970 695-796, limits assumed, looked up): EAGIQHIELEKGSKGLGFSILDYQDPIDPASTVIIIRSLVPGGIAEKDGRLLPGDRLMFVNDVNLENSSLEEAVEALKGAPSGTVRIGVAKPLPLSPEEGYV

NHERF3_4, Q5T2W1 = molecular target: T13, NHERF3_4, Q5T2W1
T13 sequence (Q5T2W1 373-468, limits assumed, looked up): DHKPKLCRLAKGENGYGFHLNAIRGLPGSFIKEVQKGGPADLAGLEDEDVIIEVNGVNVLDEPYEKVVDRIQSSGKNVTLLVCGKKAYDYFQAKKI

[1] = plain residues with an end cap or a label only (N-terminal biotin on a linker: ahx)
[2] = plain residues with an end cap or a label only (N-terminal biotin on a linker: gsgsgs; C-terminal amide)
[3] = plain residues with an end cap or a label only (N-terminal biotin on a linker: ttds)

Binder: NRKREIFSNF [NHERF2, Q15599]
- pKd (SNTB1, Q13884; [1]): below the threshold
- pKd (LIN7A, O14910; [1]): below the threshold
- pKd (Inadl_9, Q8NI35; [1]): below the threshold
- pKd (CARD11, Q9BXL7; [1]): below the threshold
- pKd (SNTG1, Q9NSN8; [1]): below the threshold
- pKd (GRIP1_5, Q9Y3R0; [1]): below the threshold
- pKd (PDZRN4_1, Q6ZMN7; [1]): below the threshold
- pKd (GRASP, Q7Z6J2; [1]): below the threshold
- pKd (IL16_4, Q14005; [1]): below the threshold
- pKd (Inadl_1, Q8NI35; [1]): below the threshold
- pKd (HTRA3, P83110; [1]): below the threshold
- pKd (PICK1, Q9NRD5; [1]): below the threshold
- pKd (LRRC7, Q96NW7; [1]): below the threshold
- pKd (LIN7B, Q9HAP6; [1]): below the threshold
- pKd (AHNAK1, Q09666; [1]): below the threshold
- pKd (ARHGAP21, Q5T5U3; [1]): below the threshold
- pKd (TIAM2, Q8IVF5; [1]): below the threshold
- pKd (GRID2IP_1, A4D2P6; [1]): below the threshold
- pKd (MAGI2_6, Q86UL8; [1]): 3.55
- pKd (TJP2_1, Q9UDY2; [1]): below the threshold
- pKd (LNX2_3, Q8N448; [1]): below the threshold
- pKd (MAGI1_1, Q96QZ7; [1]): below the threshold
- pKd (MPDZ_5, O75970; [1]): below the threshold
- pKd (NHERF3_4, Q5T2W1; [1]): below the threshold

Binder: YGIVQETTFDLGGDIH [MLLT4_int, P55196]
- pKd (SNTB1, Q13884; [2]): 3.53
- pKd (LIN7A, O14910; [2]): below the threshold
- pKd (Inadl_9, Q8NI35; [2]): below the threshold
- pKd (CARD11, Q9BXL7; [2]): below the threshold
- pKd (SNTG1, Q9NSN8; [2]): below the threshold
- pKd (GRIP1_5, Q9Y3R0; [2]): below the threshold
- pKd (PDZRN4_1, Q6ZMN7; [2]): below the threshold
- pKd (GRASP, Q7Z6J2; [2]): below the threshold
- pKd (IL16_4, Q14005; [2]): below the threshold
- pKd (Inadl_1, Q8NI35; [2]): below the threshold
- pKd (HTRA3, P83110; [2]): below the threshold
- pKd (PICK1, Q9NRD5; [2]): below the threshold
- pKd (LRRC7, Q96NW7; [2]): below the threshold
- pKd (LIN7B, Q9HAP6; [2]): 3.58
- pKd (AHNAK1, Q09666; [2]): below the threshold
- pKd (ARHGAP21, Q5T5U3; [2]): below the threshold
- pKd (TIAM2, Q8IVF5; [2]): 3.98
- pKd (GRID2IP_1, A4D2P6; [2]): below the threshold
- pKd (MAGI2_6, Q86UL8; [2]): below the threshold
- pKd (TJP2_1, Q9UDY2; [2]): below the threshold
- pKd (LNX2_3, Q8N448; [2]): below the threshold
- pKd (MAGI1_1, Q96QZ7; [2]): below the threshold
- pKd (MPDZ_5, O75970; [2]): below the threshold
- pKd (NHERF3_4, Q5T2W1; [2]): below the threshold

Binder: RRRKRKRTYL [HPV49-L2, P36762]
- pKd (SNTB1, Q13884; [1]): 3.58
- pKd (LIN7A, O14910; [1]): below the threshold
- pKd (Inadl_9, Q8NI35; [1]): below the threshold
- pKd (CARD11, Q9BXL7; [1]): below the threshold
- pKd (SNTG1, Q9NSN8; [1]): below the threshold
- pKd (GRIP1_5, Q9Y3R0; [1]): below the threshold
- pKd (PDZRN4_1, Q6ZMN7; [1]): 3.55
- pKd (GRASP, Q7Z6J2; [1]): 4.37
- pKd (IL16_4, Q14005; [1]): below the threshold
- pKd (Inadl_1, Q8NI35; [1]): below the threshold
- pKd (HTRA3, P83110; [1]): below the threshold
- pKd (PICK1, Q9NRD5; [1]): 3.47
- pKd (LRRC7, Q96NW7; [1]): below the threshold
- pKd (LIN7B, Q9HAP6; [1]): below the threshold
- pKd (AHNAK1, Q09666; [1]): 3.56
- pKd (ARHGAP21, Q5T5U3; [1]): 3.6
- pKd (TIAM2, Q8IVF5; [1]): below the threshold
- pKd (GRID2IP_1, A4D2P6; [1]): below the threshold
- pKd (MAGI2_6, Q86UL8; [1]): below the threshold
- pKd (TJP2_1, Q9UDY2; [1]): 5.68
- pKd (LNX2_3, Q8N448; [1]): below the threshold
- pKd (MAGI1_1, Q96QZ7; [1]): below the threshold
- pKd (MPDZ_5, O75970; [1]): below the threshold
- pKd (NHERF3_4, Q5T2W1; [1]): 4

Binder: RAVEEEESRF [PSCDBP, O60759]
- pKd (SNTB1, Q13884; [1]): below the threshold
- pKd (LIN7A, O14910; [1]): below the threshold
- pKd (Inadl_9, Q8NI35; [1]): below the threshold
- pKd (CARD11, Q9BXL7; [1]): below the threshold
- pKd (SNTG1, Q9NSN8; [1]): below the threshold
- pKd (GRIP1_5, Q9Y3R0; [1]): below the threshold
- pKd (PDZRN4_1, Q6ZMN7; [1]): below the threshold
- pKd (GRASP, Q7Z6J2; [1]): below the threshold
- pKd (IL16_4, Q14005; [1]): below the threshold
- pKd (Inadl_1, Q8NI35; [1]): below the threshold
- pKd (HTRA3, P83110; [1]): below the threshold
- pKd (PICK1, Q9NRD5; [1]): below the threshold
- pKd (LRRC7, Q96NW7; [1]): below the threshold
- pKd (LIN7B, Q9HAP6; [1]): below the threshold
- pKd (AHNAK1, Q09666; [1]): below the threshold
- pKd (ARHGAP21, Q5T5U3; [1]): below the threshold
- pKd (TIAM2, Q8IVF5; [1]): below the threshold
- pKd (GRID2IP_1, A4D2P6; [1]): below the threshold
- pKd (MAGI2_6, Q86UL8; [1]): below the threshold
- pKd (TJP2_1, Q9UDY2; [1]): below the threshold
- pKd (LNX2_3, Q8N448; [1]): below the threshold
- pKd (MAGI1_1, Q96QZ7; [1]): below the threshold
- pKd (MPDZ_5, O75970; [1]): below the threshold
- pKd (NHERF3_4, Q5T2W1; [1]): below the threshold

Binder: RPLPRKVSQL [DOCK4, Q8N1I0]
- pKd (SNTB1, Q13884; [3]): 3.55
- pKd (LIN7A, O14910; [3]): below the threshold
- pKd (Inadl_9, Q8NI35; [3]): below the threshold
- pKd (CARD11, Q9BXL7; [3]): below the threshold
- pKd (SNTG1, Q9NSN8; [3]): below the threshold
- pKd (GRIP1_5, Q9Y3R0; [3]): below the threshold
- pKd (PDZRN4_1, Q6ZMN7; [3]): 3.5
- pKd (GRASP, Q7Z6J2; [3]): 3.93
- pKd (IL16_4, Q14005; [3]): below the threshold
- pKd (Inadl_1, Q8NI35; [3]): below the threshold
- pKd (HTRA3, P83110; [3]): below the threshold
- pKd (PICK1, Q9NRD5; [3]): below the threshold
- pKd (LRRC7, Q96NW7; [3]): below the threshold
- pKd (LIN7B, Q9HAP6; [3]): below the threshold
- pKd (AHNAK1, Q09666; [3]): below the threshold
- pKd (ARHGAP21, Q5T5U3; [3]): below the threshold
- pKd (TIAM2, Q8IVF5; [3]): below the threshold
- pKd (GRID2IP_1, A4D2P6; [3]): below the threshold
- pKd (MAGI2_6, Q86UL8; [3]): below the threshold
- pKd (TJP2_1, Q9UDY2; [3]): below the threshold
- pKd (LNX2_3, Q8N448; [3]): below the threshold
- pKd (MAGI1_1, Q96QZ7; [3]): below the threshold
- pKd (MPDZ_5, O75970; [3]): below the threshold
- pKd (NHERF3_4, Q5T2W1; [3]): below the threshold
